According to the DeepSol protein solubility set:

Assay: soluble on expression in E. coli; label from the status in PepcDB or PDB records

| Sequence | soluble on expression in E. coli |
| --- | --- |
| SKSINVDQISIRSLSEPANPFSFWQWIFIYLPGLKEDEKQEILTHEQTHVRQWHSIDVIISEIVNIICWMNPFAWLLKTEIRLNLEYLADHKVMESGTNKKAYQYHLLGLA | not soluble |
| GPGSMYCHAGVPSTSPSPTDFSEVHKILCGHIKQGNNFSVAAAVALEPLHGSSEFWRTCGYRSGIVSALLASSLGVQRETDQLSHLEPMTVADVYAMLRHVVDENAHLRQIIARLESGECDPDDGSGGITSSTERLRSLISEGYDALTGRSSPCMGEYDCGQTPGKWKTCSNGAAGTKRRRDSPEVTEWAYVRPESPVPASETLSPAANSGDDTVDEAEQNNALDVLEQLPALPGTTRTVSSFDAVGEMVNRGAGGPSLHPTNPSEFRVGSERGSTIETHSSSEVSNFANVGVGTSSGKQKRYKFSASEDEAIIKGLARFTKGQQRFQQIYYAYRSVWHPARTVSQLYDHWRGTLRYKVIQQQGYRGKNSVAARSPEKASNMENNE | not soluble |
| MAHHHHHHMHRSLLRCALPGEPMLESYRSGVLRCLRCHLGAMRPDFPVGSAATEVAALASTATTPLTCSRRAFRQQGAAHPNTPDATEAAELEKDWQALKTYGMIGGFALLCVATLWYGSRQAKQRYFGAEGSARVSVETRGRPALGGPFVLVNTKGEPVSQAEFLGSWAFFYFGFTHCPEICPVELNRMSHVVDAVRAARPQERIAPLFVSCDPRRDSLEAIDEYLSVFHPDFIGLVGTPKQVNDACRSYRIYYSIPTDEDAAQEDYLIDHSIAIFLFDPQGRFVDFFGNRYDEREITEKVLHYMSEYAKDPTWTNW | not soluble |
| ERVPKTVDVETIRSRIAQIDGVGGVHDVHVWSIDGQQDIATVHVVVDENVNVKDCTTLDRIQKVFHDAGIDHVTVQLEHDTHMSHELPCQH | soluble |
| MLKRRQPKYCSFMDSIDNSTTIIRKNLNRFIRELTDDGKLDFESIPYQNLQKEVANQDEEGCENVIEVLLDTTSRSGCPDRKLILQLFNSFFLQFPIFRENLLNDPSEFLELMFETNPIRNPLPGSKKHGNELKVEAITVIKSWEKEKCVKNDARMKCLVVTLKKTKFVDYENGAKKIEAERKRKKILEERKMKMIENSVNVYSSKYHEIKNDAETLSMELTTTMQMLVPSFTTADPEVPSTSTSTPSAISDSKSFEIFIPDLTPEISVSSENDAIVEAFLGAKLSLIHRVQTLRKLVKRLQLLKQPGEKLAQEIIDYRDGIKNLVLKADELRIINPRPPKNKRKKSDDDFIDVDISIDDILMVQYAEKLEVDVKSKDESEKITESPEKHKIEMKNEKPVKIKTVPFGLDLKYWGEERKDVEVPKNNADCHRFWRSADEGTVAGKAQQSIYTQRQYTFIGKAPDNRKVCLAKMKSGKLCPRKDYYTCPLHGKIVDRDDEGRPINEEDRLEENYRKEQNHLKEADKIRQMIEKEYESKTKRRKKHDVDTTASEDVRNRLQKKLLDPKTIQRVSADLDASRKNRLEKNFGQQFSHF | not soluble |
| MGSSHHHHHHSSGLVPRGSHMIMIHIKAIHDLTVPLETYMPIWPTNPLLEIKPVGTVARDGYKIETISGSTHSGTHIDAPAHMLENGITIDQIDPIRFIGTGYCIKTIPDGNFVRSTHLIEKWKEEYDGSIILIETGWYKKRGFTREFQYEFPGLTEDAAEFLIERNVKLVGIDTLGIEPYQDSDFHVHKKLLSKGIPFIEDLYGLDDLEEGKPYLVVALPLKMKGASGSMARVMALEMD | soluble |
| MDTMSQILKLLEKTDSIEINEFRMDVDELELTIMPTLQNVVQKVVEKQIEAKKEFESQIEFKYPVKDYAGKVNEVKLGGKNRKTVKLGGQTSLYRFEEPQPNAPTVTFDVFDIPMNGLPRPIKENFEDVMHSPGEWAQKAVKEFGADMITLHLIGTDPKVKDKSLKDAAKDLEEVLQAVKVPLVIGGSGNPKKDPLVLEMAAEVADGERCLLASANLDLDYQKIAQAAVKHDHAVLSWAISDINMQKVLNKALMKEGLTANDIVMDPTTCALGYGIEFSIDVMTRTRLSALKGDEILQMPMSSGTTNAWGSREAWMKKDEWGPTKYRGPIWEVVTGLTMMLCGVDIFMMLHPLSVKTLKEIGTTLTYEYKSKESQDISDWINKF | not soluble |
| MGSDKIHHHHHHMSFKDIQADFIEAIRRPDLPCPHGIAPQRMGVYRELFFNNVSGFVNSGFPVLKSLYGEAQWQAQLRQFFTEHDCQNPLFIGIAGEFLAFLSARERQVDEPPFLLELAHYEWLELVVATAMEQGDEAAFDDTALAQQAYLDARLGLASHARVAQYHFEVEKISPQYQPDTPLPSPCYFCLYRDSDDEVSFLKLNPMTAQLLAVLEANTGIKYIELLQKMQALYPNFDGQQLREGIAQVLGQMAVRGVVVQKLQ | not soluble |
| MLPNVAVEFDENSIFRSLGKGNLTFREAFEEIIKFIEADTNSSYRISIGTDSHVGNGTLFVTCIHVHRIGKGAIGFLHKSLMSRPIRNLREKIYMETCMSLQLAYLFDEEKIDRIYKALGKNGKSPTKGVTFEFHIDIGKRGETKALINEMVGMVSGLNFIPKIKPDSYCASCFADRYTKAI | soluble |
| MKLLSTYRLQPMKFSEIRNRLDYFVELGVTHLYLSPVLKARPGSTHGYDVVDYNTINDELGGEEEYIRLIDEAKSKGLGIIQDIVPNHMAVHHTNWRLMDVLKKGRHSRYYNYFDFYEEEEKIRIPILGDRNFKITYVNDEPYLDYYGNLFPINDEGRNYLNDIEKLLKVQYYELVDWRDYPSYRRFFAVNELIAVRQELEWVFEDSHSKILSFEVDGYRIDHIDGLFKPEEYLRRLKNKIGNKHIFVEKILSIGEKLRWDFIDGTTGYDFLNYSNLLFTDNEDKMTEIYKNILDIDLDELVKETKKKIIDTLFKHDIERISMMLGVNYEEIKEFLSCLKVYRTYITENDFRDEEIIRNCSQKVYESMKKNVTAFMKLQQYMPAVFAKAYEDTVLFIYNRLISLNEVGSDLHYYSISCDKFHEFNLKRVGTLSFNATSTHDTKFSEDVRMRISAISEIPDEWAKKVNEWHNILNPNIDKNDEYRLYQTIVGSFDGFNNEYKERLKAHMIKALREAKVHTDWVNVNTEYEKKMTYLIDKMFNNEKFMESFLEFESKIDKMGKVKSLSLVALKITSPGVADFYQGLENFRYLLTDPDNRRPVVFSELPKRYEEGLFNNGRIKAYVTKVLLNLRKSMKDFFINSEYKPLKLQKGLCGFMRGDKVLVIVKTLNRDYDIEIDGEYTDVITDETVRGRVKVDKLPLILVK | soluble |
| MSLADIPYGTDYPDAPWIDRDGHVLIDDGGKPTQVHRGQARIAYRLAERYQDKLLHVAGIGWHSWDGRRWAADDRGEAKRAVLAELRQALSDSLNDKELRADVRKCESASGVAGVLDLAAALVPFAATVADLDSDPHLLNVANGTLDLHTLKLRPHAPADRITKICRGAYQSDTESPLWQAFLTRVLPDEGVRGFVQRLAGVGLLGTVREHVLAILIGVGANGKSVFDKAIRYALGDYACTAEPDLFMHRENAHPTGEMDLRGVRWVAVSESEKDRRLAESTIKRLTGGDTIRARKMRQDFVEFTPSHTPLLITNHLPRVPGDDTAIWRRIRVVPFEVVIPADEQDRELDARLQLEADSILSWAVAGWSDYQRIGLSQPDAVLAATSNYREDSDTIKRFIDDECVTSSPVLKATTTHLFEAWQRWRVQEGVPEISRKAFGQSLDTHGYPVTEGHHHHHH | not soluble |
| MSLKTLFDKTNLGTINMKNRFLRGALWTALADEKGHMTNELSDVYEELARGGVGTIVTGYAFVTENEQPNPRMMGIYDDSFIPEYKEFTDKIHRLGSNIIMQIVYGGFMTEFNVGERVIWGPSTTKNEVTGTLSREMTKEDIKYLVNAYAEAALRVKKSGFDGVEIHGGHGYLVSQFLSPYYNKRTDEYGGSIENRGRFVFEIFKAIREKVGEKFPILIKLNSSDYVKEGGLTIEDSLYVAERLAELGIDAIEVTGGNESIEEVMKNNLGPSRTKVAISKDRESYFKEYAIKLAERINKPVILSGGNRHFDVMEELLNDTNIEYFSLSRPLTAEPDLINKWYSGDLKKPKCKSCNQCYKTYGKRCIFNIKEGHHHHHH | soluble |
| MIKVGICDTTFARYDMGGAAIDELKKHTAGIKIIRRTVPGIKDLPVACKKLIEEEGCEMVMALGMPGPEEKDKVCAHEASTGLIQAQLMTNTHILEVFVHEDEEDDPEELKVLADNRAREHAQNLIMMLFKPDRLTREAGMGLREGKPDAGPL | not soluble |
